Results: patent US6518415 (LUDWIG INSTITUTE FOR CANCER RESEARCH, dated 2003)

What was measured:
HSA [1] = target: T1, HSA (UniProt P02768 25-609); assay: ELISA, HSA dried on Terasaki plates, Experiment A
Method: (§1) The plates were blocked for 1 hour at room temperature using PBS/3% BSA and washed three times with PBS. Serial dilutions of test antibodies in PBS/3% BSA were applied to the wells and the plates incubated for 1 hour before washing as above. Suitable anti-murine antibody or anti-human antibody alkaline phosphatase-conjugated antibodies were diluted in PBS/3% BSA and incubated in the wells for 1.5 h. After washing, colour was developed using diethanolamine and p-nitrophenyl phosphate at 37° C. for about 20 min and the absorbances measured at 405 mn.

HSA [2] = target: T1, HSA; assay: ELISA, HSA dried on Terasaki plates, Experiment B
Method: as §1

T1 sequence (P02768 25-609): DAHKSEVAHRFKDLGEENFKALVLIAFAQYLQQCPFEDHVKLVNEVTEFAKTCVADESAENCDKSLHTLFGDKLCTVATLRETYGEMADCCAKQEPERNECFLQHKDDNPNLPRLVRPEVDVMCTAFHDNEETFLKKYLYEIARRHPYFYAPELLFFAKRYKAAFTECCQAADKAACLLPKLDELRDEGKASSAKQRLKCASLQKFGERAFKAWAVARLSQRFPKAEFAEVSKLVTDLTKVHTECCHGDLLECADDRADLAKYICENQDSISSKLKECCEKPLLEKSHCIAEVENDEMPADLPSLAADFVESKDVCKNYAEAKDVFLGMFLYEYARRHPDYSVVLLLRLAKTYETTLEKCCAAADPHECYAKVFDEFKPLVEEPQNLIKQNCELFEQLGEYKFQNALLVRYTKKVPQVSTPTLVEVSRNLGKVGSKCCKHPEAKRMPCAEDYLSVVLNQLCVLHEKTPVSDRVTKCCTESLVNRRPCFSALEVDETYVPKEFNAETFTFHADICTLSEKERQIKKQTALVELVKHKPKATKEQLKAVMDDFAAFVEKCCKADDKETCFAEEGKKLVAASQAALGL

B1: humanized 3S193 antibody HuVH/HuVK (antibody, V domains shown)
VH: EVQLVESGGGVVQPGRSLRLSCSSSGFTFSDYYMYWVRQAPGKGLEWVAYMSNVGAITDYPDTVKGRFTISRDNSKNTLFLQMDSLRPEDTGVYFCARGTRDGSWFAYWGQGTPVTVSS
VL: DIQMTQSPSSLSASVGDRVTITCRSSQRIVHSNGNTYLEWYQQTPGKAPKLLIYKVSNRFSGVPSRFSGSGSGTDYTFTISSLQPEDIATYYCFQGSHVPFTFGQGTKLQIT
notes: also called 3S193 HuVH/HuVK
- binding result (HSA [1]): no binding (tested: 100 µg/ml (highest concentration tested))

B2: humanized 3S193 antibody HuVHA/HuVKF (antibody, V domains shown)
VH: EVQLVESGGGVVQPGRSLRLSCSSSGFTFSDYYMYWVRQAPGKGLEWVAYMSNVGAITDYPDTVKGRFTISRDNAKNTLFLQMDSLRPEDTGVYFCARGTRDGSWFAYWGQGTPVTVSS
VL: DIQMTQSPSSLSASVGDRVTITCRSSQRIVHSNGNTYLEWYQQTPGKAPKLLIYKVSNRFSGVPSRFSGSGSGTDFTFTISSLQPEDIATYYCFQGSHVPFTFGQGTKLQIT
- binding result (HSA [2]): no binding (tested: 100 µg/ml (highest concentration tested))

B3: humanized 3S193 antibody HuVHAS/HuVKF (antibody, V domains shown)
VH: EVQLVESGGGVVQPGRSLRLSCSSSGFTFSDYYMYWVRQAPGKGLEWVAYMSNVGAITDYPDTVKGRFTISRDNAKSTLFLQMDSLRPEDTGVYFCARGTRDGSWFAYWGQGTPVTVSS
VL: DIQMTQSPSSLSASVGDRVTITCRSSQRIVHSNGNTYLEWYQQTPGKAPKLLIYKVSNRFSGVPSRFSGSGSGTDFTFTISSLQPEDIATYYCFQGSHVPFTFGQGTKLQIT
- binding result (HSA [2]): no binding (tested: 100 µg/ml (highest concentration tested))

B4: humanized 3S193 antibody HuVHASY/HuVKF (antibody, V domains shown)
VH: EVQLVESGGGVVQPGRSLRLSCSSSGFTFSDYYMYWVRQAPGKGLEWVAYMSNVGAITDYPDTVKGRFTISRDNAKSTLYLQMDSLRPEDTGVYFCARGTRDGSWFAYWGQGTPVTVSS
VL: DIQMTQSPSSLSASVGDRVTITCRSSQRIVHSNGNTYLEWYQQTPGKAPKLLIYKVSNRFSGVPSRFSGSGSGTDFTFTISSLQPEDIATYYCFQGSHVPFTFGQGTKLQIT
notes: also called 3S193HuVHASY
- binding result (HSA [2]): no binding (tested: 100 µg/ml (highest concentration tested))

B5: murine monoclonal antibody 3S193 (antibody, V domains shown)
VH: EVKLVESGGGLVQPGGSLKLSCATSGFTFSDYYMYWVRQTPEKRLEWVAYMSNVGAITDYPDTVKGRFTISRDNAKSTLYLQMSRLRSEDTAMYYCARGTRDGSWFAYWGQGTLVTVSA
VL: DVLMTQTPLSLPVSLGDQASISCRSSQRIVHSNGNTYLEWYLQKPGQSPKLLIYKVSNRFSGVPDRFSGSGSGTDFTLKISRVEAEDLGVYYCFQGSHVPFTFGSGTKLEIK
notes: The N-terminal residues of the VK in the listing are dictated by the VK10BACK primer; also called murine 3S193
- binding result (HSA [1]): no binding (tested: 100 µg/ml (highest concentration tested))
